Data on 1 sequence can be found in patent US12214008B2, “Protein interfaces” (SyntheX, Inc., priority 2016, dated 2025).

Common to all, as to format: binding
One test addresses T1, Rad51 (S208E; A209D) (Homo sapiens, UniProt Q06609, A209D/S208E).
T1 construct: expressed in transfected cells
T1 sequence (Q06609 1-339 S208E/A209D): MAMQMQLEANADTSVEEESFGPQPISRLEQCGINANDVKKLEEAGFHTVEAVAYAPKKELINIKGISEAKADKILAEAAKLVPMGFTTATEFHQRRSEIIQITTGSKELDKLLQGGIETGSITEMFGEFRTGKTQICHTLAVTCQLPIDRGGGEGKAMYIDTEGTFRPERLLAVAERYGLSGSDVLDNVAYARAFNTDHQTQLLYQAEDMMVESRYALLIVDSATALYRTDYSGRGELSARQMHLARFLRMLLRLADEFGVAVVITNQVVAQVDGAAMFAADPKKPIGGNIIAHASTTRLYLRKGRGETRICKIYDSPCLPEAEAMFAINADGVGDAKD
Briefly: Y2H assay, human RAD51 mutants. The arrangement: key: (+) denotes a successful interaction between the two Y2H baits; (−) denotes a lack of interaction. The method, then:
(§1) The ability of peptides to bind human RAD51 with various mutations was then tested by Y2H assay. […] While mutations affecting BRCA2 binding had no effect on peptide binding, mutations that affected RAD51-AP1 binding did disrupt peptide binding. As these mutations were at residues 202, 205, and 206, they were consistent with the previous fusion data showing binding somewhere in the 190-218 region, and indicated the peptide SEQ ID NO.: 5 contacts at least residues 202, 205, and 206 of RAD51.

Test [1] concerns the target T2, Rad51 (Q202R, Y205D, Q206A) (Homo sapiens, UniProt Q06609, Q202R/Q206A/Y205D).
T2 construct: expressed in transfected cells
T2 sequence (Q06609 1-339 Q202R/Y205D/Q206A): T1 sequence (Q06609 1-339 S208E/A209D) with Q202R, Y205D, Q206A, E208S, D209A
Briefly: Y2H assay, human RAD51 mutants. Set-up: key: (+) denotes a successful interaction between the two Y2H baits; (−) denotes a lack of interaction. The method, then: as §1

The next test has as its target T3, Rad51 (A190L; A192L) (Homo sapiens, UniProt Q06609, A190L/A192L).
T3 construct: expressed in transfected cells
T3 sequence (Q06609 1-339 A190L/A192L): T1 sequence (Q06609 1-339 S208E/A209D) with A190L, A192L, E208S, D209A
The test can be described thus: Y2H assay, human RAD51 mutants. Set-up: key: (+) denotes a successful interaction between the two Y2H baits; (−) denotes a lack of interaction. The method, then:
as §1

The target of the next test is T4, S.pombe Rad51 (Schizosaccharomyces pombe, UniProt P36601).
T4 construct: expressed in transfected cells
T4 sequence (P36601 whole entry, looked up): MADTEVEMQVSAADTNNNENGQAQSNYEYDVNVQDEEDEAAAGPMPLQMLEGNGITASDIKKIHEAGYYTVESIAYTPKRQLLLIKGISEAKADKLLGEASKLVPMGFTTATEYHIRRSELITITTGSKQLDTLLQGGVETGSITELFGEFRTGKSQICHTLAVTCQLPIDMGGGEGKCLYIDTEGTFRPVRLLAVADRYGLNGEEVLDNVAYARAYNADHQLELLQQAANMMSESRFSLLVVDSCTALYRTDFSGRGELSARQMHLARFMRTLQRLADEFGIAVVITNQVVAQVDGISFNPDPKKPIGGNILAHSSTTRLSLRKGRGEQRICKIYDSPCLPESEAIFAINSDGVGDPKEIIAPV
Briefly: Y2H assay RAD51/SEQ ID NO.: 5 pair. The arrangement: key: cells having the interaction would survive (+); cells not having the interaction would die (−) on selective media (−ADE, −HIS). The method, then: (§2) RAD51-binding peptides were tested for ability to bind RAD51 of several different species using a “conventional” Y2H assay, where interaction between the two-hybrid pair drove expression of ADE2 and HIS genes. In this Y2H assay the two-hybrid pair was RAD51 and the compound 5 peptide sequence (SEQ ID NO.: 5), so that cells having the interaction would survive (+) and cells not having the interaction would die (−) on selective media (−ADE, −HIS).

The next test relates to K.lactis Rad51. The test can be described thus: Y2H assay RAD51/SEQ ID NO.: 5 pair. The arrangement: key: cells having the interaction would survive (+); cells not having the interaction would die (−) on selective media (−ADE, −HIS). The method, then:
as §2

For another test, the target named is T5, S.cerevisiae Rad51 (Saccharomyces cerevisiae, UniProt P25454).
T5 construct: expressed in transfected cells
T5 sequence (P25454 whole entry): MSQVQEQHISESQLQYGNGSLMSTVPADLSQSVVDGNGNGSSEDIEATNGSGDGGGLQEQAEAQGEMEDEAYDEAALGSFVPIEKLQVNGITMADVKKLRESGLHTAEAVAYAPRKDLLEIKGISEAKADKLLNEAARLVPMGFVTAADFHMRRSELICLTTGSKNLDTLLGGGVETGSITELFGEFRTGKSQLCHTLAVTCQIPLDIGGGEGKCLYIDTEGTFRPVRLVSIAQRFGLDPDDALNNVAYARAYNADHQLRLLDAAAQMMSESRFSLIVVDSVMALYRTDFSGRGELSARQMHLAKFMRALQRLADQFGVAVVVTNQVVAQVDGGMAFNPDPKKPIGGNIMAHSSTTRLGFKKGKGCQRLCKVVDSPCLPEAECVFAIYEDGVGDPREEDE
The test can be described thus: Y2H assay RAD51/SEQ ID NO.: 5 pair. The arrangement: key: cells having the interaction would survive (+); cells not having the interaction would die (−) on selective media (−ADE, −HIS). The method, then:
as §2

In another test the target is T6, G.gallus Rad51 (Gallus gallus, UniProt P37383).
T6 construct: expressed in transfected cells
T6 sequence (P37383 1-339): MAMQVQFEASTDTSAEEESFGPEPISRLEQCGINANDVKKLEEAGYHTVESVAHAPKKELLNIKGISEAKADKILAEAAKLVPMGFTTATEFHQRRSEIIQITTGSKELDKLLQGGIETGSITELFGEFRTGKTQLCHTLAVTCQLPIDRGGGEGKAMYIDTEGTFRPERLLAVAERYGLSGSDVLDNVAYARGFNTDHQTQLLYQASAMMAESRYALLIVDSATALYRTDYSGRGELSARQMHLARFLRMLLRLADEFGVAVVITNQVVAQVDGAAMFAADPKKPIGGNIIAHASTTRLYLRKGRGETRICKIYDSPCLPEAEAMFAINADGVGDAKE
Briefly: Y2H assay RAD51/SEQ ID NO.: 5 pair. Set-up: key: cells having the interaction would survive (+); cells not having the interaction would die (−) on selective media (−ADE, −HIS). The method, then:
as §2

Another test relates to K.pastoris Rad51. Briefly: Y2H assay RAD51/SEQ ID NO.: 5 pair. Set-up: key: cells having the interaction would survive (+); cells not having the interaction would die (−) on selective media (−ADE, −HIS). The method, then:
as §2

Substitutions are numbered along the chain they refer to.

KRRRRRRRKRLGVRLRVSRML [SEQ ID NO.: 5]: the “Y2H interaction with SEQ ID NO.: 5” value with Rad51 (S208E; A209D) is “+”; in test [1], “−”; with Rad51 (A190L; A192L) it was “+”. The “Compound 5 Sequence Binding” value with S.pombe Rad51 is on record as “+”; with K.lactis Rad51 it was “−”; with S.cerevisiae Rad51, “−”; with G.gallus Rad51, “+”; in the test on K.pastoris Rad51, “+”.
